These results are taken from patent publication US20120014957A1 (AbbVie / Abbott, published 2012).

B1: DVD1314 (bispecific antibody, human IgG1, kappa)
heavy: not shown
light: QSVLTQPPSVSAAPGQKVTISCSGSSSNIENNHVSWYQQLPGTAPKLLIYDNNKRPSGIPDRFSGSKSGTSATLGITGLQTGDEADYYCETWDTSLSAGRVFGGGTKLTVLGQPKAAPDIQMTQSPSSLSASVGDRVTITCRASEDIYNALAWYQQKPGKAPKLLIYNTDTLHTGVPSRFSGSGSGTDYTLTISSLQPEDFATYFCQHYFHYPRTFGQGTKVEIKRTVAAPSVFIFPPSDEQLKSGTASVVCLLNNFYPREAKVQWKVDNALQSGNSQESVTEQDSKDSTYSLSSTLTLSKADYEKHKVYACEVTHQGLSSPVTKSFNRGEC
B2: DVD1315 (bispecific antibody, human IgG1, kappa)
heavy: not shown
light: DIQMTQSPSSLSASVGDRVTITCRASEDIYNALAWYQQKPGKAPKLLIYNTDTLHTGVPSRFSGSGSGTDYTLTISSLQPEDFATYFCQHYFHYPRTFGQGTKVEIKRTVAAPDVVMTQSPLSLPVTPGEPASISCRSSQSLLHSNGFNYVDWYLQKPGQSPHLLIYFGSYRASGVPDRFSGSGSGTDFTLKISRVEAEDVGVYYCMQALQTPPWTFGQGTKVEIRRTVAAPSVFIFPPSDEQLKSGTASVVCLLNNFYPREAKVQWKVDNALQSGNSQESVTEQDSKDSTYSLSSTLTLSKADYEKHKVYACEVTHQGLSSPVTKSFNRGEC
B3: DVD1318 (bispecific antibody, human IgG1, kappa)
heavy: not shown
light: DIEMTQSPDSLAVSLGERATINCRSSQSVLYSSSNRNYLAWYQQNPGQPPKLLIYWASTRESGVPDRFSGSGSGTDFTLTISSLQAEDVAVYYCQQYYSTPRTFGQGTKVEIKRTVAAPDIQMTQSPSSLSASVGDRVTITCRASEDIYNALAWYQQKPGKAPKLLIYNTDTLHTGVPSRFSGSGSGTDYTLTISSLQPEDFATYFCQHYFHYPRTFGQGTKVEIKRTVAAPSVFIFPPSDEQLKSGTASVVCLLNNFYPREAKVQWKVDNALQSGNSQESVTEQDSKDSTYSLSSTLTLSKADYEKHKVYACEVTHQGLSSPVTKSFNRGEC
B4: DVD1335 (bispecific antibody, human IgG1, kappa)
heavy: not shown
light: DIQMTQSPSSLSASVGDRVTITCRASEDIYNALAWYQQKPGKAPKLLIYNTDTLHTGVPSRFSGSGSGTDYTLTISSLQPEDFATYFCQHYFHYPRTFGQGTKVEIKRTVAAPQIVLSQSPAILSPSPGEKVTMTCRASSSVSYIHWFQQKPGSSPKPWIYATSNLASGVPVRFSGSGSGTSYSLTISRVEAEDAATYYCQQWTSNPPTFGGGTKLEIKRTVAAPSVFIFPPSDEQLKSGTASVVCLLNNFYPREAKVQWKVDNALQSGNSQESVTEQDSKDSTYSLSSTLTLSKADYEKHKVYACEVTHQGLSSPVTKSFNRGEC
B5: DVD1362 (bispecific antibody, human IgG1, kappa)
heavy: not shown
light: QSALTQPASVSGSPGQSITISCTGTSSDVGSYNVVSWYQQHPGKAPKLIIYEVSQRPSGVSNRFSGSKSGNTASLTISGLQTEDEADYYCCSYAGSSIFVIFGGGTKVTVLGQPKAAPDIQMTQSPSSLSASVGDRVTITCRASEDIYNALAWYQQKPGKAPKLLIYNTDTLHTGVPSRFSGSGSGTDYTLTISSLQPEDFATYFCQHYFHYPRTFGQGTKVEIKRTVAAPSVFIFPPSDEQLKSGTASVVCLLNNFYPREAKVQWKVDNALQSGNSQESVTEQDSKDSTYSLSSTLTLSKADYEKHKVYACEVTHQGLSSPVTKSFNRGEC
B6: DVD1333 (bispecific antibody, human IgG1, kappa)
heavy: not shown
light: DIQMTQSPSSLSASVGDRVTITCRASEDIYNALAWYQQKPGKAPKLLIYNTDTLHTGVPSRFSGSGSGTDYTLTISSLQPEDFATYFCQHYFHYPRTFGQGTKVEIKRTVAAPQAVLTQPSSLSAPPGASASLTCTLRSGFNVDSYRISWYQQKPGSPPQYLLRYKSDSDKQQGSGVPSRFSGSKDASANAGILLISGLQSEDEADYYCMIWHSSAWVFGGGTKLTVLRTVAAPSVFIFPPSDEQLKSGTASVVCLLNNFYPREAKVQWKVDNALQSGNSQESVTEQDSKDSTYSLSSTLTLSKADYEKHKVYACEVTHQGLSSPVTKSFNRGEC
B7: DVD1313 (bispecific antibody, human IgG1, lambda)
heavy: not shown
light: DIQMTQSPSSLSASVGDRVTITCRASEDIYNALAWYQQKPGKAPKLLIYNTDTLHTGVPSRFSGSGSGTDYTLTISSLQPEDFATYFCQHYFHYPRTFGQGTKVEIKRTVAAPQSVLTQPPSVSAAPGQKVTISCSGSSSNIENNHVSWYQQLPGTAPKLLIYDNNKRPSGIPDRFSGSKSGTSATLGITGLQTGDEADYYCETWDTSLSAGRVFGGGTKLTVLGQPKAAPSVTLFPPSSEELQANKATLVCLISDFYPGAVTVAWKADSSPVKAGVETTTPSKQSNNKYAASSYLSLTPEQWKSHRSYSCQVTHEGSTVEKTVAPTECS
B8: DVD1338 (bispecific antibody, human IgG1, kappa)
heavy: not shown
light: DIQMTQSPSSLSASVGDRVTITCQASQDISNYLNWYQQKPGKAPKLLIYDASNLETGVPSRFSGSGSGTDFTFTISSLQPEDIATYFCQHFDHLPLAFGGGTKVEIKRTVAAPDIQMTQSPSSLSASVGDRVTITCRASEDIYNALAWYQQKPGKAPKLLIYNTDTLHTGVPSRFSGSGSGTDYTLTISSLQPEDFATYFCQHYFHYPRTFGQGTKVEIKRTVAAPSVFIFPPSDEQLKSGTASVVCLLNNFYPREAKVQWKVDNALQSGNSQESVTEQDSKDSTYSLSSTLTLSKADYEKHKVYACEVTHQGLSSPVTKSFNRGEC
B9: DVD1316 (bispecific antibody, human IgG1, kappa)
heavy: not shown
light: DVVMTQSPLSLPVTPGEPASISCRSSQSLLHSNGFNYVDWYLQKPGQSPHLLIYFGSYRASGVPDRFSGSGSGTDFTLKISRVEAEDVGVYYCMQALQTPPWTFGQGTKVEIRRTVAAPDIQMTQSPSSLSASVGDRVTITCRASEDIYNALAWYQQKPGKAPKLLIYNTDTLHTGVPSRFSGSGSGTDYTLTISSLQPEDFATYFCQHYFHYPRTFGQGTKVEIKRTVAAPSVFIFPPSDEQLKSGTASVVCLLNNFYPREAKVQWKVDNALQSGNSQESVTEQDSKDSTYSLSSTLTLSKADYEKHKVYACEVTHQGLSSPVTKSFNRGEC

This assay concerns the target Recombinant Human β-NGF (human, UniProt P01138 122-241). Nature of the assay: cell-based or functional assay.
For B1, the “C-Terminal VD NGF Inhibition Assay EC50” value came out at 0.3 pM.

Consider B2, for which the “N-Terminal VD NGF Inhibition Assay EC50” value was 2.2 pM.

As for B3, the “C-Terminal VD NGF Inhibition Assay EC50” value is 53.4 pM.

With B4, the “N-Terminal VD NGF Inhibition Assay EC50” value came to 0.3 pM.

As for B5, the “C-Terminal VD NGF Inhibition Assay EC50” value stood at 2.5 pM.

Consider B6, for which the “N-Terminal VD NGF Inhibition Assay EC50” value came to 0.6 pM.

B7: the “N-Terminal VD NGF Inhibition Assay EC50” value is 0.9 pM.

In the case of B8, the “C-Terminal VD NGF Inhibition Assay EC50” value is 1270 pM.

Turning to B9, the “C-Terminal VD NGF Inhibition Assay EC50” value stood at 874 pM.
